This is an account of results in the supplement of paper PMC5998384.

The test system of data set [1] is HeLa Kyoto. In words: melting temperature (median over replicates), in situ; higher = more thermally stable.
The test system of data set [2] is HeLa Kyoto. As to the kind of experiment: solubility in G1/S (NP-40 vs SDS abundance) (log2 ratio); higher = more soluble. The conditions noted are these: cell cycle stage: G1/S.
Data set [3] concerns HeLa Kyoto. In words: solubility change mitosis vs G1/S (difference of NP-40 vs SDS log2 ratios) (log2 ratio difference); higher = more soluble in mitosis.
In data set [4] the test system is HeLa Kyoto. In words: thermal stability score vs G1/S (z-score of summed log2 fold changes over temperatures); higher = more thermally stable than in G1/S.
Setting [5] is: cell cycle stage: early G1 (4.5 h after nocodazole release).
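For melting temperature (median over replicates), in situ in this document: HeLa Kyoto cells synchronized by double thymidine or nocodazole block, proteins quantified by TMT10plex mass spectrometry, three independent biological replicates.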
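For solubility change mitosis vs G1/S (difference of NP-40 vs SDS log2 ratios) in this document: synchronized HeLa Kyoto cells (double thymidine block for G1/S, nocodazole release for mitosis), protein amounts in NP-40 versus SDS lysates quantified by mass spectrometry, three biological replicates.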
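For solubility in G1/S (NP-40 vs SDS abundance) in this document: HeLa Kyoto cells arrested at G1/S by double thymidine block, proteins quantified by TMT10plex mass spectrometry in mild NP-40 versus SDS extracts, three biological replicates.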
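For thermal stability score vs G1/S (z-score of summed log2 fold changes over temperatures) in this document: synchronized HeLa Kyoto cells, proteins quantified by TMT10plex mass spectrometry, three biological replicates, mitosis taken 0.5 h after nocodazole release, G1/S directly after double thymidine block.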

Regarding “MAFLKLRDQPSLVQAIFNGDPDEVRALIFKKEDVNFQDNEKRTPLHAAAYLGDAEIIELLILSGARVNAKDSKWLTPLHRAVASCSEEAVQVLLKHSADVNARDKNWQTPLHIAAANKAVKCAEALVPLLSNVNVSDRAGRTALHHAAFSGHGEMVKLLLSRGANINAFDKKDRRAIHWAAYMGHIEVVKLLVSHGAEVTCKDKKSYTPLHAAASSGMISVVKYLLDLGVDMNEPNAYGNTPLHVACYNGQDVVVNELIDCGAIVNQKNEKGFTPLHFAAASTHGALCLELLVGNGADVNMKSKDGKTPLHMTALHGRFSRSQTIIQSGAVIDCEDKNGNTPLHIAARYGHELLINTLITSGADTAKRGIHGMFPLHLAALSGFSDCCRKLLSSGFDIDTPDDFGRTCLHAAAAGGNLECLNLLLNTGADFNKKDKFGRSPLHYAAANCNYQCLFALVGSGASVNDLDERGCTPLHYAATSDTDGKCLEYLLRNDANPGIRDKQGYNAVHYSAAYGHRLCLQLIASETPLDVLMETSGTDMLSDSDNRATISPLHLAAYHGHHQALEVLVQSLLDLDVRNSSGRTPLDLAAFKGHVECVDVLINQGASILVKDYILKRTPIHAAATNGHSECLRLLIGNAEPQNAVDIQDGNGQTPLMLSVLNGHTDCVYSLLNKGANVDAKDKWGRTALHRGAVTGHEECVDALLQHGAKCLLRDSRGRTPIHLSAACGHIGVLGALLQSAASMDANPATADNHGYTALHWACYNGHETCVELLLEQEVFQKTEGNAFSPLHCAVINDNEGAAEMLIDTLGASIVNATDSKGRTPLHAAAFTDHVECLQLLLSHNAQVNSVDSTGKTPLMMAAENGQTNTVEMLVSSASAELTLQDNSKNTALHLACSKGHETSALLILEKITDRNLINATNAALQTPLHVAARNGLTMVVQELLGKGASVLAVDENGYTPALACAPNKDVADCLALILATMMPVSSSSPLSSLTFNAINRYTNTSKTVSFEALPIMRNEPSSYCSFNNIGGEQEYLYTDVDELNDSDSETY [ANKRD28]”, the melting temperature with HeLa Kyoto [1] (cell cycle stage: G1/S) stood at 51.2 °C; in the data set on HeLa Kyoto [1] (cell cycle stage: mitosis) it was 50.8 °C. Moreover, the “solubility in G1/S (log2)” value in the data set with HeLa Kyoto [2] is -0.288. Besides, in the data set with HeLa Kyoto [3], the “solubility change mitosis (log2)” value is -0.133. For the same sequence, the values for the thermal stability score in the data set with HeLa Kyoto [4] (setting [5]) and with HeLa Kyoto [4] (cell cycle stage: mitosis) were -0.536 and -1.19, respectively.

For the sequence “MAFPHRPDAPELPDFSMLKRLARDQLIYLLEQLPGKKDLFIEADLMSPLDRIANVSILKQHEVDKLYKVENKPALSSNEQLCFLVRPRIKNMRYIASLVNADKLAGRTRKYKVIFSPQKFYACEMVLEEEGIYGDVSCDEWAFSLLPLDVDLLSMELPEFFRDYFLEGDQRWINTVAQALHLLSTLYGPFPNCYGIGRCAKMAYELWRNLEEEEDGETKGRRPEIGHIFLLDRDVDFVTALCSQVVYEGLVDDTFRIKCGSVDFGPEVTSSDKSLKVLLNAEDKVFNEIRNEHFSNVFGFLSQKARNLQAQYDRRRGMDIKQMKNFVSQELKGLKQEHRLLSLHIGACESIMKKKTKQDFQELIKTEHALLEGFNIRESTSYIEEHIDRQVSPIESLRLMCLLSITENGLIPKDYRSLKTQYLQSYGPEHLLTFSNLRRAGLLTEQAPGDTLTAVESKVSKLVTDKAAGKITDAFSSLAKRSNFRAISKKLNLIPRVDGEYDLKVPRDMAYVFGGAYVPLSCRIIEQVLERRSWQGLDEVVRLLNCSDFAFTDMTKEDKASSESLRLILVVFLGGCTFSEISALRFLGREKGYRFIFLTTAVTNSARLMEAMSEVKA [VPS33B]”, the melting temperature with HeLa Kyoto [1] (cell cycle stage: G1/S) came to 49.9 °C; in the data set with HeLa Kyoto [1] (cell cycle stage: mitosis) it was 49.4 °C. For the same sequence, the “solubility in G1/S (log2)” value in the data set with HeLa Kyoto [2] was -0.121. Also, the “solubility change mitosis (log2)” value in the data set with HeLa Kyoto [3] was -0.189. The values for the thermal stability score with HeLa Kyoto [4] (setting [5]) and in the data set on HeLa Kyoto [4] (cell cycle stage: mitosis) were 0.623 and 0.549, respectively.

Regarding “MAFQKAVKGTILVGGGALATVLGLSQFAHYRRKQMNLAYVKAADCISEPVNREPPSREAQLLTLQNTSEFDILVIGGGATGSGCALDAVTRGLKTALVERDDFSSGTSSRSTKLIHGGVRYLQKAIMKLDIEQYRMVKEALHERANLLEIAPHLSAPLPIMLPVYKWWQLPYYWVGIKLYDLVAGSNCLKSSYVLSKSRALEHFPMLQKDKLVGAIVYYDGQHNDARMNLAIALTAARYGAATANYMEVVSLLKKTDPQTGKVRVSGARCKDVLTGQEFDVRAKCVINATGPFTDSVRKMDDKDAAAICQPSAGVHIVMPGYYSPESMGLLDPATSDGRVIFFLPWQKMTIAGTTDTPTDVTHHPIPSEEDINFILNEVRNYLSCDVEVRRGDVLAAWSGIRPLVTDPKSADTQSISRNHVVDISESGLITIAGGKWTTYRSMAEDTINAAVKTHNLKAGPSRTVGLFLQGGKDWSPTLYIRLVQDYGLESEVAQHLAATYGDKAFEVAKMASVTGKRWPIVGVRLVSEFPYIEAEVKYGIKEYACTAVDMISRRTRLAFLNVQAAEEALPRIVELMGRELNWDDYKKQEQLETARKFLYYEMGYKSRSEQLTDRSEISLLPSDIDRYKKRFHKFDADQKGFITIVDVQRVLESINVQMDENTLHEILNEVDLNKNGQVELNEFLQLMSAIQKGRVSGSRLAILMKTAEENLDRRVPIPVDRSCGGL [GPD2]”, the melting temperature with HeLa Kyoto [1] (cell cycle stage: G1/S) worked out at 59.2 °C; in the data set with HeLa Kyoto [1] (cell cycle stage: mitosis), 59 °C. In addition, the “solubility in G1/S (log2)” value with HeLa Kyoto [2] amounted to 0.104. The “solubility change mitosis (log2)” value in the data set with HeLa Kyoto [3] was -0.0945. Besides, the thermal stability score in the data set with HeLa Kyoto [4] (setting [5]) is -2.62; in the data set on HeLa Kyoto [4] (cell cycle stage: mitosis), -2.93.

In the case of “MAFWAGGSPSVVDYFPSEDFYRCGYCKNESGSRSNGMWAHSMTVQDYQDLIDRGWRRSGKYVYKPVMNQTCCPQYTIRCRPLQFQPSKSHKKVLKKMLKFLAKGEVPKGSCEDEPMDSTMDDAVAGDFALINKLDIQCDLKTLSDDIKESLESEGKNSKKEEPQELLQSQDFVGEKLGSGEPSHSVKVHTVPKPGKGADLSKPPCRKAKEIRKERKRLKLMQQNPAGELEGFQAQGHPPSLFPPKAKSNQPKSLEDLIFESLPENASHKLEVRVVRSSPPSSQFKATLLESYQVYKRYQMVIHKNPPDTPTESQFTRFLCSSPLEAETPPNGPDCGYGSFHQQYWLDGKIIAVGVIDILPNCVSSVYLYYDPDYSFLSLGVYSALREIAFTRQLHEKTSQLSYYYMGFYIHSCPKMKYKGQYRPSDLLCPETYVWVPIEQCLPSLENSKYCRFNQDPEAVDEDRSTEPDRLQVFHKRAIMPYGVYKKQQKDPSEEAAVLQYASLVGQKCSERMLLFRN [ATE1]”, the figures for the melting temperature in the data set with HeLa Kyoto [1] (cell cycle stage: G1/S) and in the data set on HeLa Kyoto [1] (cell cycle stage: mitosis) were 51 °C and 50.8 °C, respectively. The “solubility in G1/S (log2)” value in the data set with HeLa Kyoto [2] is 0.211. The “solubility change mitosis (log2)” value in the data set with HeLa Kyoto [3] was -0.352. The thermal stability score in the data set on HeLa Kyoto [4] (setting [5]) stood at 0.0147; in the data set with HeLa Kyoto [4] (cell cycle stage: mitosis) it was 0.195.

As to “MAGAAGLTAEVSWKVLERRARTKRSGSVYEPLKSINLPRPDNETLWDKLDHYYRIVKSTLLLYQSPTTGLFPTKTCGGDQKAKIQDSLYCAAGAWALALAYRRIDDDKGRTHELEHSAIKCMRGILYCYMRQADKVQQFKQDPRPTTCLHSVFNVHTGDELLSYEEYGHLQINAVSLYLLYLVEMISSGLQIIYNTDEVSFIQNLVFCVERVYRVPDFGVWERGSKYNNGSTELHSSSVGLAKAALEAINGFNLFGNQGCSWSVIFVDLDAHNRNRQTLCSLLPRESRSHNTDAALLPCISYPAFALDDEVLFSQTLDKVVRKLKGKYGFKRFLRDGYRTSLEDPNRCYYKPAEIKLFDGIECEFPIFFLYMMIDGVFRGNPKQVQEYQDLLTPVLHHTTEGYPVVPKYYYVPADFVEYEKNNPGSQKRFPSNCGRDGKLFLWGQALYIIAKLLADELISPKDIDPVQRYVPLKDQRNVSMRFSNQGPLENDLVVHVALIAESQRLQVFLNTYGIQTQTPQQVEPIQIWPQQELVKAYLQLGINEKLGLSGRPDRPIGCLGTSKIYRILGKTVVCYPIIFDLSDFYMSQDVFLLIDDIKNALQFIKQYWKMHGRPLFLVLIREDNIRGSRFNPILDMLAALKKGIIGGVKVHVDRLQTLISGAVVEQLDFLRISDTEELPEFKSFEELEPPKHSKVKRQSSTPSAPELGQQPDVNISEWKDKPTHEILQKLNDCSCLASQAILLGILLKREGPNFITKEGTVSDHIERVYRRAGSQKLWLAVRYGAAFTQKFSSSIAPHITTFLVHGKQVTLGAFGHEEEVISNPLSPRVIQNIIYYKCNTHDEREAVIQQELVIHIGWIISNNPELFSGMLKIRIGWIIHAMEYELQIRGGDKPALDLYQLSPSEVKQLLLDILQPQQNGRCWLNRRQIDGSLNRTPTGFYDRVWQILERTPNGIIVAGKHLPQQPTLSDMTMYEMNFSLLVEDTLGNIDQPQYRQIVVELLMVVSIVLERNPELEFQDKVDLDRLVKEAFNEFQKDQSRLKEIEKQDDMTSFYNTPPLGKRGTCSYLTKAVMNLLLEGEVKPNNDDPCLIS [PHKB]”, the melting temperature worked out at 50.2 °C in the data set with HeLa Kyoto [1] (cell cycle stage: G1/S) and 49.3 °C with HeLa Kyoto [1] (cell cycle stage: mitosis). Besides, in the data set on HeLa Kyoto [2], the “solubility in G1/S (log2)” value is -0.047. In addition, the “solubility change mitosis (log2)” value in the data set on HeLa Kyoto [3] was -0.191. For the same sequence, the thermal stability score is -0.245 in the data set on HeLa Kyoto [4] (setting [5]) and 0.284 in the data set on HeLa Kyoto [4] (cell cycle stage: mitosis).
